Measured values as given in the supplement of paper PMC10567573.

B1: PDZK1 (parent)
chain: RETASLKLLPHQPRIVEMKKGSNG
B2: DVL3 (parent)
chain: FCADNPSELPPPMERTGGIGDSRP

Variants of: B1
Assay: protein stability index of a GFP-peptide fusion (GPS, HEK-293T) (PSI 1-6); higher = more stable
Settings: c terminus: a fixed tail appended
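Also: lentivirally expressed fusions sorted by FACS into six bins by GFP to DsRed ratio, PSI derived from sequencing read proportions per bin multiplied by bin number.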

Variant | protein stability index
N23D | 4.24
N23G | 3.62
N23Y | 3.3
N23V | 3.72
N23I | 3.24
N23Q | 4.32
N23P | 4.22
N23T | 3.52
N23K | 4.18
N23R | 4.48
N23L | 3.11
N23A | 3.62
V16W | 3.57
V16Q | 4.51
V16H | 4.35
V16E | 4.53
V16S | 3.92
V16P | 4.63
V16N | 4.88
V16T | 4.67
V16I | 3.9
V16A | 4.42
V16F | 4.05
V16L | 3.87
S5T | 3.39

Variant | protein stability index
S5I | 2.82
S5E | 3.61
S5D | 3.77
S5H | 2.98
S5G | 3.26
S5Y | 2.47
S5N | 2.93
S5F | 1.88
S5Q | 3.44
S5R | 3.38
M18W | 3.53
M18H | 4.44
M18E | 5.25
M18P | 4.58
M18F | 4
M18K | 4.56
M18A | 4.51
M18V | 3.86
M18D | 5.3
M18R | 4.93
M18Q | 4.58
M18C | 4.33
K7R | 4.05
K7W | 2.72
K7T | 4.66

Variant | protein stability index
K7S | 4.29
K7C | 3.89
K7N | 4.86
K7Y | 3.4
K7I | 3.68
K7M | 3.9
K7P | 4.67
L8D | 3.4
L8P | 4.25
L8G | 3.42
L8M | 2.75
L8C | 3.38
L8Y | 3.17
L8E | 3.77
L8A | 3.56
L8W | 3.21
L8Q | 4.16
L8N | 2.96
L8K | 3.63
S22F | 2.47
S22D | 4.55
S22C | 3.25
S22Y | 2.61
S22Q | 3.88
S22P | 3.33

Variant | protein stability index
S22E | 4.54
S22G | 4.28
S22N | 4.09
G21E | 4.29
G21N | 3.43
G21P | 3.77
G21S | 3.37
G21L | 1.83
G21F | 2.64
G21K | 3.74
I15Y | 4.01
I15K | 4.75
I15M | 3.89
I15L | 4.16
I15C | 4.3
I15F | 3.44
I15W | 2.79
Q12H | 3.97
Q12R | 3.65
Q12T | 3.26
Q12S | 4.05
Q12F | 2.97
Q12P | 4.03
Q12A | 3.54
K19L | 2.79

Variant | protein stability index
K19H | 2.65
K19N | 3.28
K19T | 2.61
K19Y | 2.2
K19W | 3.14
K19E | 3.94
K19V | 2.39
K19P | 4.52
K19A | 3.55
K19I | 2.77
K19D | 4.35
K19S | 3.49
R14A | 4.25
R14C | 3.63
R14D | 4.61
R14W | 3.3
R14K | 3.38
R14Y | 3.34
R14H | 3.7
R14T | 4.22
R14E | 4.07
R14G | 4.05
R14S | 3.87
K20L | 3.61
K20C | 3.65

Variant | protein stability index
K20W | 2.48
K20P | 3.99
K20Y | 3.62
K20I | 3.41
K20G | 4.14
K20E | 4.87
K20Q | 4.06
K20F | 3
K20H | 4.4
G24K | 4.76
G24L | 3.53
G24P | 4.01
G24W | 3.88
G24H | 4.17
G24T | 4.41
G24C | 4.01
G24N | 4.49
G24Y | 3.56
G24V | 4.15
G24E | 4.82
G24M | 4.17
G24A | 4.52
G24D | 5
P13F | 3.63
P13W | 3.25

Variant | protein stability index
P13I | 3.29
P13L | 4.35
P13E | 4.4
P13H | 3.73
P13K | 4.07
P13N | 3.67
P13A | 4.09
P13S | 3.92
P13D | 4.22
T3C | 2.35
T3Y | 3.02
T3V | 3.25
T3Q | 3.41
T3G | 3.27
T3F | 3.08
T3H | 3.31
T3S | 3.62
T3K | 3.53
T3E | 3.65
T3P | 3.75
T3D | 3.39
L9H | 3.42
L9E | 3.11
L9W | 2.76
L9F | 3.26

Variant | protein stability index
L9M | 3.02
L9Y | 3
L9N | 3.79
L9Q | 3.5
L9C | 3.75
L9D | 3.33
L9S | 3.26
H11W | 3.29
H11I | 3.59
H11N | 3.38
H11G | 3.38
H11F | 3.27
H11D | 2.35
H11L | 3.14
H11C | 3.47
H11T | 3.73
H11M | 2.75
H11Y | 3.5
H11R | 3.35
H11A | 2.57
A4E | 3.43
A4D | 3.15
A4N | 3.81
A4C | 3.12
A4S | 3.17

Variant | protein stability index
A4L | 3.05
A4M | 3.27
A4F | 2.66
A4Q | 3.29
A4R | 3.88
A4W | 2.37
A4K | 3.79
A4G | 3.17
A4P | 3.8
A4Y | 3.19
A4V | 3.21
E2Q | 3.73
E2I | 2.23
E2M | 3.08
E2W | 2.36
E2K | 3.58
E2N | 3.57
E2C | 2.1
E2D | 3.4
E2A | 2.73
E17S | 3.67
E17P | 2.97
E17I | 2.42
E17K | 3.82
E17G | 3.48

Variant | protein stability index
E17F | 2.81
E17C | 3.17
E17Y | 2.51
E17D | 4.08
E17L | 2.66
E17V | 3.21
E17W | 2.7
P10K | 3.62
P10S | 3.48
P10F | 2.08
P10H | 2.54
P10Y | 2.99
P10V | 2.76
P10L | 2.88
P10W | 2.82
P10I | 2.43
P10A | 3.5
P10T | 2.98
P10D | 3.21
L6A | 3.66
L6E | 3.95
L6W | 2.98
L6H | 3.56
L6G | 3.69
L6S | 4.01

Variant | protein stability index
L6M | 3.55
L6N | 4
L6V | 3.54
L6K | 3.64
L6D | 3.53
R1H | 3.14
R1Y | 3.14
R1N | 3.8
R1T | 2.98
R1Q | 3.4
R1D | 3.19
R1G | 2.8
R1M | 2.38
R1F | 2.99
R1S | 3.41
R1K | 3.67

Variants of: B2
Assay: as above
Settings: c terminus: a fixed tail appended

Variant | protein stability index
S22W | 3.97
S22Q | 5.11
S22H | 4.34
S22T | 4.7
S22P | 4.63
S22G | 4
S22E | 5.23
S22C | 3.55
S22L | 4.4
S22M | 4.09
S22K | 4.77
S22N | 5.01
S22F | 3.28
S22A | 4.61
S22Y | 4.23
S22V | 4.15
S22I | 4
S22R | 4.29
S22D | 4.88
P24C | 4.39
P24V | 4.55
P24E | 5.45
P24R | 5.16

Variant | protein stability index
P24S | 4.73
P24K | 4.92
P24H | 4.66
P24Q | 4.58
P24N | 4.6
P24G | 4.71
P24I | 4.32
P24D | 4.86
P24F | 3.82
P24M | 3.65
P24T | 4.12
P24A | 3.79
P24Y | 3.6
P24W | 3.23
P24L | 3.96
D21N | 4.11
D21Q | 4.58
D21W | 2.97
D21K | 4.21
D21R | 3.71
D21P | 4.16
D21I | 3.77
D21M | 3.67

Variant | protein stability index
D21L | 3.48
D21Y | 3.92
D21T | 4.52
D21S | 4.35
R23A | 4.89
R23I | 4.18
R23W | 2.21
R23G | 4.72
R23Q | 4.56
R23H | 5.02
R23E | 4.95
R23C | 4.59
R23M | 4.12
R23V | 4.46
R23D | 5.18
R23T | 5.04
R23F | 3.55
R23L | 3.74
R23K | 4.94
R23N | 5.22
R23S | 4.75
R23Y | 4.15
